{"source": "the nanobody polyreactivity screen of Harvey et al. (2022)", "data": [{"assay": "yeast display, Sf9 membrane polyspecificity reagent, FACS + sequencing; frameworks hold sequencing errors", "in_short": "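After 36–48 hours of galactose induction, yeast (Saccharomyces cerevisiae BJ5465) displaying a synthetic nanobody library were stained at 4 °C for 1 hour with 10% biotinylated, detergent-solubilized Sf9 membrane reagent. Streptavidin microbeads enriched the stained cells before FACS sorting into low and high (top ~1%) gates on anti-HA and streptavidin fluorescence. Each clone's polyreactivity label reflects its gate of origin.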", "values": [{"sequence": "QVQLVESGGGLVQAGGSLRLSCAASGLTFAWYAMGWYRQAPGKARELVAVISNGGSTNDADSVKRRFTISRDNAKNTVYLQMNSLKPDDTAVYYCAAGWVWSGNDYYYWGQGTQVTVSS", "polyreactivity (PSR sort gate)": "low polyreactivity"}, {"sequence": "QVQLVESGGGLVQAGGSLRLSCAASGLTFAYYAMGWYRQAPGKDRELVAAISWNGGRTYYADSVKGRFTISRDNAKNTVYLQMNSLKPEDTAVYYCAAQVTSSFYWGQGTQVTVSS", "polyreactivity (PSR sort gate)": "high polyreactivity"}, {"sequence": "QVQLVESGGGLVQAGGSLRLSCAASGLTFAYYAMGWYRQPPGKERELVAAITSGDGTNYADSVKGRFTISRDNAKNTVYLQMNSLKPEDTAVYYCATDTWSPGYDYWGQGTQVTVSS", "polyreactivity (PSR sort gate)": "low polyreactivity"}, {"sequence": "QVQLVESGGGLVQAGGSLRLSCAASGLTFAYYVMGWYRQAPGKERELVATITRGGDTYYADSVKGRFTISRANAKNTVYVQMNSLTPEDTAVYYCNAVWRVKYRRGLDYWGQGTQVTVSS", "polyreactivity (PSR sort gate)": "high polyreactivity"}, {"sequence": "QVQLVESGGGLVQAGGSLRLSCAASGLTFAYYVMGWYRQAPGKERELVATITRGGDTYYADSVKGRFTISRDNAKITVYLQMYSLKPEDTAVYYCNAYLRSGSMDYWGQGTQVTVSS", "polyreactivity (PSR sort gate)": "high polyreactivity"}, {"sequence": "QVQLVESGGGLVQAGGSLRLSCAASGLTFDGNTMGWYRQAPGKERELVAAISIDGGNTYADSVKGRFTISRDNAKNTVYLQMNSLKPEDTAVYYDYWGQGTEVTVSS", "polyreactivity (PSR sort gate)": "low polyreactivity"}, {"sequence": "QVQLVESGGGLVQAGGSLRLSCAASGLTFDNNAMGWYRQAPGTERELVAAISYRGSSTYYADSVKGRFTISRDNAKNTVYLQMNSLKPEDTAVYYCAADVVDLGRFDYWGQRTQVTVSS", "polyreactivity (PSR sort gate)": "low polyreactivity"}, {"sequence": "QVQLVESGGGLVQAGGSLRLSCAASGLTFDPYAMGWYRQAPGKERELVADISDGASTYYADSVKGRFTMSRDNAKNTVYLQMNSLKPEDTAVYYCNVDVGWYAFTDAYDYWGQGTHVTVSS", "polyreactivity (PSR sort gate)": "low polyreactivity"}, {"sequence": "QVQLVESGGGLVQAGGSLRLSCAASGLTFDRYAMGWYRQAPGKERELVAAISGSGSSTYYADSAKGRFTISRDNAKNTVYLQMNSLKPEDTAVYYCAADRDLGYDTRYNYWGQGTQVTVSS", "polyreactivity (PSR sort gate)": "low polyreactivity"}, {"sequence": "QVQLVESGGGLVQAGGSLRLSCAASGLTFDYYAMGWYRQAPGKERELVAAIDWSGGSTYYADSVKGRFTISRDNAMNTVYFQMNSLKPEDSAVYYCATESDDSGMDYWGQGTQVTVSS", "polyreactivity (PSR sort gate)": "low polyreactivity"}, {"sequence": "QVQLVESGGGLVQAGGSLRLSCAASGLTFDYYAMGWYRQAPGKERELVAAISIGGSTNYADSVKGRFTISRDNAKNNVYLQMNSLKPEDTAVYYCAAQGYLRLRTHFNYWGQGTQVTVSS", "polyreactivity (PSR sort gate)": "low polyreactivity"}, {"sequence": "QVQLVESGGGLVQAGGSLRLSCAASGLTFDYYVMGWYRQAPGKERELVATISWSGDITYYADSVKGRFTISRDNAKNTVYLQMNSLKPEDTAVYYSATDKSYSSWSAQYDYWGQGTQVTVSS", "polyreactivity (PSR sort gate)": "low polyreactivity"}, {"sequence": "QVQLVESGGGLVQAGGSLRLSCAASGLTFEWYAMGWYRQAPGKERELVAAISWNGGSTYYADSVKGRFTISRDNAKNTVYLQMNSLKPEDTAVYYCATSSPRRYYWGQGTLVTVSS", "polyreactivity (PSR sort gate)": "high polyreactivity"}, {"sequence": "QVQLVESGGGLVQAGGSLRLSCAASGLTFEYNAMGWYRQAPGKERELVAAITSGDNTYYADSVKGRITISRDNAKNTVYLQMNSLKPEDTAVYYCAKYRWNWRYVSRGDSWGQGTQVTVSS", "polyreactivity (PSR sort gate)": "high polyreactivity"}, {"sequence": "QVQLVESGGGLVQAGGSLRLSCAASGLTFFRNAMGWYRQAPGKEREFVAGITSTDGSTYYADSVKGRFTISRDNAKNTVYLQMNSLKPEDTAVYYCAAAYRVRGRTYDAWGQGTQVTVSS", "polyreactivity (PSR sort gate)": "high polyreactivity"}, {"sequence": "QVQLVESGGGLVQAGGSLRLSCAASGLTFFYYAMGWYRQAPGKERELVAGISRSGGSTYYADSVKGRFTISRDNAKNTVYLQMKSLKPEDTAVYYCAKRTLVASYIYREGEYWGQGTQVTVSS", "polyreactivity (PSR sort gate)": "high polyreactivity"}, {"sequence": "QVQLVESGGGLVQAGGSLRLSCAASGLTFGAYAMGWYRQAPGKEREFVAAITYSGGSTNYADSVKGRFTISRDNAKNTVYLQMISLKPEDTAVYYCNAGYYSPWAFYPYDYWGQGTQVTVSS", "polyreactivity (PSR sort gate)": "high polyreactivity"}, {"sequence": "QVQLVESGGGLVQAGGSLRLSCAASGLTFGAYAMGWYRQAPRKEREFVAAITYSGGSSNYADSVKGRFTISRDNAKNTVYLQMNSLKPEDTAVYYCNAGYYSPWAFYPYDYWGQGTQVTVSS", "polyreactivity (PSR sort gate)": "high polyreactivity"}]}]}
